According to the supplement of paper PMC11196671:
± gives the standard deviation of the averaged measurements.

Legend:
[1] = PET hydrolysis product formed (TPA+MHET+BHET, UV-Vis) per mg enzyme (mmol/mg enzyme); higher = more PET depolymerisation activity; extreme values may be limits of the assay; details: 24 h
Protocol: (§1)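 Purified PET hydrolases, 2.5 ug enzyme on 3.5 mg amorphous PET film (aFilm) or crystalline PET powder (cryPow) in 0.5 mL of 50 mM buffer (NaCitrate pH 4.5/5.5, NaPhosphate 6.5/7.5, glycine 8.5/9.5) at 60 or 70 C with shaking for 24 h. Total aromatic product by UV-Vis (260/280 nm, blank-subtracted, normalised per mg enzyme) and individual TPA, MHET, BHET concentrations by UHPLC-DAD at 240 nm; duplicate reactions.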

[2] = terephthalic acid (TPA) released, HPLC; higher = more TPA released; extreme values may be limits of the assay; details: 24 h
Protocol: as §1

[3] = PET hydrolysis product formed (TPA+MHET+BHET, UV-Vis) per mg enzyme (mmol/mg enzyme); higher = more PET depolymerisation activity; extreme values may be limits of the assay; details: 2 h
Protocol: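 Purified PET hydrolases (His-SUMO cleaved, E. coli C41(DE3) small-scale expression), 2.5 ug enzyme on 3.5 mg amorphous PET film (aFilm) or crystalline PET powder (cryPow) in 0.5 mL of 50 mM buffer (NaCitrate pH 4.5/5.5, NaPhosphate 6.5/7.5, glycine 8.5/9.5) at 60 or 70 C with shaking for 2 h. Soluble aromatic products (TPA+MHET+BHET) were quantified by UV-Vis at 260/280 nm, blank-subtracted against the no-enzyme control, and normalised per mg enzyme; duplicate reactions.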

[4] = MHET released, HPLC; higher = more MHET released; extreme values may be limits of the assay; details: 24 h
Protocol: as §1

ADNPYQRGPDPTNASIEAATGPFAVGTQPIVGASGFGGGQIYYPTDTSQTYGAVVIVPGFISVWAQLAWLGPRLASQGFVVIGIETSTITDLPDPRGDQALAALDWATTRSPVRSRIDRTRLAAAGWSMGGGGLRRAACQRPSLKAIVGMAPWNTEKNWSCVTVPTLFFGGSSDAVASPNDHAKPFYNSITRAEKDYIELCNADHFFPTSANTTMAKYFISWLKRWVDNDTRYTQFLCPGPSTGLFAPVCASMNTCPF [CaPETaseM9]
Details | MHET released, [4] [mM] | PET hydrolysis product formed, [1] | PET hydrolysis product formed, [3] | terephthalic acid, [2] [mM]
PET substrate: aFilm, 60 °C, pH 4.5 | 0.00378 ± 0.0053 | 0 | 0 | 0.00338 ± 0.0048
PET substrate: aFilm, 60 °C, pH 5.5 | 0.0574 ± 0.036 | 0.0213 ± 0.013 | 0 | 0.0407 ± 0.023
PET substrate: aFilm, 60 °C, pH 6.5 | 0.106 ± 0.025 | 0.0426 ± 0.0061 | 0.00371 ± 0.0053 | 0.0535 ± 0.013
PET substrate: aFilm, 60 °C, pH 7.5 | 0.299 ± 0.047 | 0.132 ± 0.037 | 0.0032 ± 0.0045 | 0.165 ± 0.0089
PET substrate: aFilm, 60 °C, pH 8.5 | 0.108 ± 0.011 | 0.0575 ± 0.005 | 0.0152 ± 0.0018 | 0.0537 ± 0.0038
PET substrate: aFilm, 60 °C, pH 9.5 | 0.123 ± 0.038 | 0.102 ± 0.029 | 0 | 0.297 ± 0.045
PET substrate: aFilm, 70 °C, pH 4.5 | 0 | 0 | 0 | 0
PET substrate: aFilm, 70 °C, pH 5.5 | 0 | 0 | 0 | 0
PET substrate: aFilm, 70 °C, pH 6.5 | 0 | 0 | 0 | 0
PET substrate: aFilm, 70 °C, pH 7.5 | 0 | 0 | 0 | 0
PET substrate: aFilm, 70 °C, pH 8.5 | 0.00345 ± 0.0049 | 0 | 0 | 0
PET substrate: aFilm, 70 °C, pH 9.5 | 0 | 0 | 0 | 0.00887 ± 0.0016
PET substrate: cryPow, 60 °C, pH 4.5 | 0.03643 ± 0.0002 | 0.016 ± 0.0019 | 0.0116 ± 0.0017 | 0.0214 ± 0.0012
PET substrate: cryPow, 60 °C, pH 5.5 | 0.0852 ± 0.0034 | 0.0317 ± 0.0017 | 0.0306 ± 0.0051 | 0.0432 ± 0.00074
PET substrate: cryPow, 60 °C, pH 6.5 | 0.103 ± 0.011 | 0.0476 ± 0.0037 | 0.0384 ± 0.0087 | 0.0325 ± 0.011
PET substrate: cryPow, 60 °C, pH 7.5 | 0.183 ± 0.023 | 0.0789 ± 0.011 | 0.0693 ± 0.0015 | 0.0946 ± 0.028
PET substrate: cryPow, 60 °C, pH 8.5 | 0.0922 ± 0.01 | 0.0427 ± 0.0075 | 0.0382 ± 0.0026 | 0.0338 ± 0.0062
PET substrate: cryPow, 60 °C, pH 9.5 | 0.0663 ± 0.032 | 0.0717 ± 0.019 | 0.0436 ± 0.013 | 0.336 ± 0.11
PET substrate: cryPow, 70 °C, pH 4.5 | 0 | 0 | 0 | 0
PET substrate: cryPow, 70 °C, pH 5.5 | 0.0148 ± 0.0041 | 0.00351 ± 0.005 | 0.00828 ± 0.0021 | 0.0031 ± 0.0044
PET substrate: cryPow, 70 °C, pH 6.5 | 0.0346 ± 0.009 | 0.0154 ± 0.0042 | 0.0134 ± 0.00054 | 0.0109 ± 0.0021
PET substrate: cryPow, 70 °C, pH 7.5 | 0.0406 ± 0.0068 | 0.0196 ± 0.0026 | 0.0293 ± 0.0069 | 0.0454 ± 0.008
PET substrate: cryPow, 70 °C, pH 8.5 | 0.0381 ± 0.003 | 0.0178 ± 0.0023 | 0.0155 ± 0.0019 | 0.0207 ± 0.0003
PET substrate: cryPow, 70 °C, pH 9.5 | 0 | 0.0148 ± 0.0087 | 0.0183 ± 0.0012 | 0.0926 ± 0.054
